Test results reported in paper PMC7094245.

Target: T1, IBV N protein amino-terminal region (region 1, NI) (Infectious bronchitis virus (strain …, UniProt P69598 1-133))
T1 sequence: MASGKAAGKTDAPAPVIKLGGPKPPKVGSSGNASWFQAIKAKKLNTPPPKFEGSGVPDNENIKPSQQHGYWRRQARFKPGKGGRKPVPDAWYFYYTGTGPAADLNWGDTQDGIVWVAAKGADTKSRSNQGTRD
Assay: SPR

B1: IBV leader RNA (contains TRS) (ssRNA)
RNA: ACUUAAGAUAGAUAUUAAUAUAUAUCUAUUACACUAGCCUUGCGCUAGAUUUUUAACUGAACAAUACAGACCUAAAAAGUCUGUUUGAUG
**Q.** For B1, which Kd is on record?
**A.** 1430 nM
